Measurements from paper PMC13218723, “A novel RAB5 binding site in human VPS34-CII that is likely the primordial site in eukaryotic evolution” (eLife, 2026).
Values joined by “and” are separate entries in the source; they are usually repeats but may differ in a detail not shown here. Equal entries are not always repeated. Values belong to the binder of their own block, whether it stands above or below them.

What was measured:
[1] = biological target: mCherry-tagged yeast VPS34-CII (ScVPS34-CII), wild type (S. cerevisiae, UniProt P22543 1-875; P22219 1-1454; Q02948 1-557; Q05919 1-439)
Target sequence in this assay (P22543 whole entry, chain 1 of 4): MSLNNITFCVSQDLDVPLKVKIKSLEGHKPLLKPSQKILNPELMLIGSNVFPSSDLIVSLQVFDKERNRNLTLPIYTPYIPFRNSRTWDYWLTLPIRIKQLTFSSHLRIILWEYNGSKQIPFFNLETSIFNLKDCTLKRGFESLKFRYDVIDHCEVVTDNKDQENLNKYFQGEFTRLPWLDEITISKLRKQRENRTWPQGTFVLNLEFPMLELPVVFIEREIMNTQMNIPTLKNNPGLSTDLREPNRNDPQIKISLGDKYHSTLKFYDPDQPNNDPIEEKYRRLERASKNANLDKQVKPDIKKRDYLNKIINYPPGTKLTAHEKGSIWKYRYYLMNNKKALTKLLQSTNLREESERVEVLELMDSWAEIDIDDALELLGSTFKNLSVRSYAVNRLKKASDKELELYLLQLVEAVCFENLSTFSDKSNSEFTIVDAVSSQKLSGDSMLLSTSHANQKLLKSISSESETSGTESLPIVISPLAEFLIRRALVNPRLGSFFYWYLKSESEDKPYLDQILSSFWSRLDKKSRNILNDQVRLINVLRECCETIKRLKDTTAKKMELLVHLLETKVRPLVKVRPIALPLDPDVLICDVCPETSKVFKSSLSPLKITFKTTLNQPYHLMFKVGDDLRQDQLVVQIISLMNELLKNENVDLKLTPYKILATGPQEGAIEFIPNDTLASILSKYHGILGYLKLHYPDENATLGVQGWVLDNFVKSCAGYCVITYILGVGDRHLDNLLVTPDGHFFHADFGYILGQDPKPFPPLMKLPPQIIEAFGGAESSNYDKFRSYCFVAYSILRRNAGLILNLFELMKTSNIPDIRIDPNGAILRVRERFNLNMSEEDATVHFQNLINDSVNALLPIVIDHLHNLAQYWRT
Target sequence in this assay (P22219 whole entry, chain 2 of 4): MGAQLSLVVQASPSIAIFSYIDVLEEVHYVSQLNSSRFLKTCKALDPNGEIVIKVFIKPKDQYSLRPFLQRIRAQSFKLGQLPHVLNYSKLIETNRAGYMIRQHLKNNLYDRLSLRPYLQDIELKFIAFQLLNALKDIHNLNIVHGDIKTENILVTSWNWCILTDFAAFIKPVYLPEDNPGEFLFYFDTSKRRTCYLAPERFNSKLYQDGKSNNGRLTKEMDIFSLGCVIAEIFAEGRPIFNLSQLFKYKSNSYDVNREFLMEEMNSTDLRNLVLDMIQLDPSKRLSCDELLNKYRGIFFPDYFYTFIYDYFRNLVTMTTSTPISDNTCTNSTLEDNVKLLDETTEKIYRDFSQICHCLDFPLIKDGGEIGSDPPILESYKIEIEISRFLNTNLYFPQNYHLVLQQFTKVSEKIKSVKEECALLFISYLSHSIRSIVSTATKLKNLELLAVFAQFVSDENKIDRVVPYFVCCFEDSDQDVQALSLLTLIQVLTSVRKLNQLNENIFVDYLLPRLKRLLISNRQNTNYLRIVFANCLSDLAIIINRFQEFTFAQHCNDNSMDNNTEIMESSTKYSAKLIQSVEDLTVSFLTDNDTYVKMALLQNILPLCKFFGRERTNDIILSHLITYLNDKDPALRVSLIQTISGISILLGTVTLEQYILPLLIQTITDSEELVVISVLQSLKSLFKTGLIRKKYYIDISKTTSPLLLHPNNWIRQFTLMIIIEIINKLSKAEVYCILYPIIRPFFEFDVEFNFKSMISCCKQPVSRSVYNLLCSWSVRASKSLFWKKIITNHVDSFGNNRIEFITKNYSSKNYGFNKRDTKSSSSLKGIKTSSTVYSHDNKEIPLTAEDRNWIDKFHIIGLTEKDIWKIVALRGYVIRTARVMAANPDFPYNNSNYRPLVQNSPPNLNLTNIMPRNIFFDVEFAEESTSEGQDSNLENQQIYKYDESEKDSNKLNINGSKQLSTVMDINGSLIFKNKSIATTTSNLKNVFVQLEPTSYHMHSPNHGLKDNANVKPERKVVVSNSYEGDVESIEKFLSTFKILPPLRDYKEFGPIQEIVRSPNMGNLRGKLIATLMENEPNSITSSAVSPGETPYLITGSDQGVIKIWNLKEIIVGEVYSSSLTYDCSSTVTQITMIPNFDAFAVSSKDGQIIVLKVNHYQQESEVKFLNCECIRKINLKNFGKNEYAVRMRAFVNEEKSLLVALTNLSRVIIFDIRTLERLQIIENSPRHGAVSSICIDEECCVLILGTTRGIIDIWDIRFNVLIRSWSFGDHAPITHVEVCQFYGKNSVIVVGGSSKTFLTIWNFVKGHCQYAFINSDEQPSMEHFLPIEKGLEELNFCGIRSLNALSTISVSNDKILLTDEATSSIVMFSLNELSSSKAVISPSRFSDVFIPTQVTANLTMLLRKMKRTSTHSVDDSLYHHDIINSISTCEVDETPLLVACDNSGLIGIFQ
Target sequence in this assay (Q02948 whole entry, chain 3 of 4): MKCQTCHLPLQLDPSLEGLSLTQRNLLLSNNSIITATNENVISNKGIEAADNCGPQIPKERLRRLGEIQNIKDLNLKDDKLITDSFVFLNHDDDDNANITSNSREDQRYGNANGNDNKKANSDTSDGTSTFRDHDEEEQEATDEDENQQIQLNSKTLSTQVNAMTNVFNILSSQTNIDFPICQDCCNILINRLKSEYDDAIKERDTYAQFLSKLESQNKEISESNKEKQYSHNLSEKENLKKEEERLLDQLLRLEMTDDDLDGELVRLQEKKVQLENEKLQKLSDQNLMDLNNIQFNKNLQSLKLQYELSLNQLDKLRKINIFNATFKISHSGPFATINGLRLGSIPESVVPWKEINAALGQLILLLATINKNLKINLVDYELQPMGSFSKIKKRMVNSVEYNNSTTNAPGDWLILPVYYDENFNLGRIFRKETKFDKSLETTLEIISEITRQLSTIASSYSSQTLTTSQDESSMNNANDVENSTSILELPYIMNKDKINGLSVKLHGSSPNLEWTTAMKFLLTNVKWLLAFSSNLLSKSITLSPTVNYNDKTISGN
Target sequence in this assay (Q05919 whole entry, chain 4 of 4): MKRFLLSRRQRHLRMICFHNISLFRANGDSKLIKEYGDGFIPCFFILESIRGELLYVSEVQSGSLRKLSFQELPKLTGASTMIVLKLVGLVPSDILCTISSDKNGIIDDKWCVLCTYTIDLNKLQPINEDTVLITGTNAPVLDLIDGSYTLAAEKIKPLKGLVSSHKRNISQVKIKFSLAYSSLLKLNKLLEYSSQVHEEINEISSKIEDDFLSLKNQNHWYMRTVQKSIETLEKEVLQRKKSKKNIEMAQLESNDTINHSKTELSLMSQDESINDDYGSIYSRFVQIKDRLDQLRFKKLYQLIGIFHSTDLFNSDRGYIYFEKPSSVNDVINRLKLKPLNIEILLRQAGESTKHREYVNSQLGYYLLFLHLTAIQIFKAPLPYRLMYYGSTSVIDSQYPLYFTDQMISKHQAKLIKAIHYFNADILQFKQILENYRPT

[2] = biological target: T1, mCherry-tagged yeast VPS34-CII (ScVPS34-CII), wild type (S. cerevisiae, UniProt P22543 1-875; P22219 1-1454; Q02948 1-557; Q05919 1-439); experiment: confocal microscopy bead-based binding assay; RFP-trap beads coated with mCherry-tagged yeast VPS34-CII; Vps21 Q66L-EGFP added at increasing concentrations; settings: both partners purified
T1 construct: S. cerevisiae Vps34; S. cerevisiae Vps15; S. cerevisiae Vps30, named as a common subunit of the yeast complexes; S. cerevisiae Vps38, named as the unique subunit of yeast complex II; also called WT ScVPS34-CII; yeast complex II; source: S. cerevisiae YOY193, galactose-induced; purified (IgG beads, TEV cleavage, Superdex 200); copies: + + +
T1 sequence (P22543 whole entry, chain 1 of 4): as the sequence (P22543 whole entry, chain 1 of 4) above
T1 sequence (P22219 whole entry, chain 2 of 4): as the sequence (P22219 whole entry, chain 2 of 4) above
T1 sequence (Q02948 whole entry, chain 3 of 4): as the sequence (Q02948 whole entry, chain 3 of 4) above
T1 sequence (Q05919 whole entry, chain 4 of 4): as the sequence (Q05919 whole entry, chain 4 of 4) above

[3] = biological target: mCherry-tagged human VPS34-CII with VPS34 199-REIE-202>199-AAAA-202 (human, UniProt Q8NEB9 1-887; Q99570 1-1358; Q14457 1-450; Q9P2Y5 1-699, 199-REIE-202>199-AAAA-202)
[4] = biological target: T2, mCherry-tagged human VPS34-CII with VPS34 199-REIE-202>199-ERIR-202 (human, UniProt Q8NEB9 1-887; Q99570 1-1358; Q14457 1-450; Q9P2Y5 1-699, R199E | E200R | E202R); experiment: confocal microscopy bead-based binding assay; RFP-trap agarose beads coated with 2 µM mCherry-tagged VPS34 complex (or mCherry alone); AF488-labelled RAB protein added at varying concentrations; 20 mM HEPES pH 8.0, 100 mM NaCl, 0.5 mM TCEP; 30 min on ice; AF488 normalised by mCherry intensity; fit 'One site - specific binding'; settings: both partners purified
T2 construct: human VPS34, full length, untagged, R199E E200R E202R; human VPS15, full length, with C-terminal 3xTEV-ZZ removed by TEV; human BECLIN1, full length; human UVRAG, full length, untagged; also called VPS34-CII REIE >ERIR; reverse charge mutant; source: Expi293 cells, transfected; purified (IgG beads, TEV cleavage, S200 gel filtration); not shown: ZZ (protein A), C-terminal, cleaved; mCherry, …

[5] = biological target: T3, mCherry-tagged human VPS34 complex II (VPS34-CII), wild type (human, UniProt Q8NEB9 1-887; Q99570 1-1358; Q14457 1-450; Q9P2Y5 1-699); experiment: as above; settings: both partners purified
T3 construct: human VPS34 (class III PI3K), full length, untagged; human VPS15, full length, with C-terminal 3xTEV-ZZ removed by TEV; human BECLIN1, full length; human UVRAG, full length, untagged; Held on RFP-trap beads by the mCherry on BECLIN1; also called mCherry-VPS34-CII; WT VPS34-CII; source: Expi293 cells, transfected; purified (IgG beads, TEV cleavage, S200 gel filtration); not shown: ZZ (protein A), …

[6] = biological target: T4, mCherry-tagged human VPS34-CII with VPS34 199-REIE-202>199-AAAA-202 (human, UniProt Q8NEB9 1-887; Q99570 1-1358; Q14457 1-450; Q9P2Y5 1-699, 199-REIE-202>199-AAAA-202); experiment: as above; settings: both partners purified
T4 construct: human VPS34, full length, untagged, REIE to AAAA in C2 HH helix 2; human VPS15, full length, with C-terminal 3xTEV-ZZ removed by TEV; human BECLIN1, full length; human UVRAG, full length, untagged; also called VPS34-CII REIE >AAAA; source: Expi293 cells, transfected; purified (IgG beads, TEV cleavage, S200 gel filtration); not shown: ZZ (protein A), C-terminal, cleaved; mCherry, N-terminal, kept; …

[7] = biological target: T5, mCherry-tagged human VPS34-CII with VPS15 579-SHMIT-583>579-DDMIE-583 (human, UniProt Q8NEB9 1-887; Q99570 1-1358; Q14457 1-450; Q9P2Y5 1-699, S579D | H580D | T583E); experiment: as above; settings: both partners purified
T5 construct: human VPS34, wild type; human VPS15, full length, S579D H580D T583E, with C-terminal 3xTEV-ZZ removed by TEV; human BECLIN1, full length; human UVRAG, full length, untagged; also called VPS34-CII VPS15 mutant; VPS15 mut; source: Expi293 cells, transfected; purified (IgG beads, TEV cleavage, S200 gel filtration); not shown: ZZ (protein A), C-terminal, cleaved; mCherry, N-terminal, kept; copies: + …

[8] = biological target: T6, mCherry-tagged human VPS34 complex II with VPS15 579-SHMIT-583>DDMIE (human, UniProt Q8NEB9 1-887; Q99570 1-1358; Q14457 1-450; Q9P2Y5 1-699, S579D | H580D | T583E); experiment: confocal microscopy bead-based binding assay; mCherry-tagged VPS34 complex (2 µM) held on RFP-trap agarose beads, AF488-labelled RAB5A added at varying concentrations; 20 mM HEPES pH 8.0, 100 mM NaCl, 0.5 mM TCEP; 30 min on ice; AF488 intensity normalised by mCherry intensity; GraphPad Prism fit 'One site - specific binding'; fit of the representative experiment; settings: both partners purified
T6 construct: VPS34 (PIK3C3), human, wild type; BECLIN1, human, full length; UVRAG, human, full length, untagged; also called VPS34-CII VPS15 mutant; CII-DDMIE; source: Expi293 cells, transfected, purified (IgG beads, TEV cleavage, gel filtration); not shown: ZZ, C-terminal, cleaved; mCherry, N-terminal, kept; copies: + + +

[9] = biological target: T7, mCherry-tagged human VPS34 complex II with VPS34 199-REIE-202>AAAA (human, UniProt Q8NEB9 1-887; Q99570 1-1358; Q14457 1-450; Q9P2Y5 1-699, 199-REIE-202>199-AAAA-202); experiment: as above; settings: both partners purified
T7 construct: VPS34 (PIK3C3), human, full length, untagged, 199-REIE-202 changed to AAAA; VPS15, human, full length; BECLIN1, human, full length; UVRAG, human, full length, untagged; also called VPS34-CII REIE >AAAA; CII-AAAA; source: Expi293 cells, transfected, purified (IgG beads, TEV cleavage, gel filtration); not shown: ZZ, C-terminal, cleaved; mCherry, N-terminal, kept; copies: + + +

[10] = biological target: T8, mCherry-tagged human VPS34 complex II, wild type (VPS34, VPS15, mCherry-BECLIN1, UVRAG) (human, UniProt Q8NEB9 1-887; Q99570 1-1358; Q14457 1-450; Q9P2Y5 1-699); experiment: as above; settings: both partners purified
T8 construct: VPS34 (PIK3C3), human, full length, untagged; VPS15, human, full length; BECLIN1, human, full length; UVRAG, human, full length, untagged; Held on RFP-trap beads by the mCherry on BECLIN1; also called VPS34-CII; WT VPS34-CII; source: Expi293 cells, transfected, purified (IgG beads, TEV cleavage, gel filtration); not shown: ZZ, C-terminal, cleaved; mCherry, N-terminal, kept; copies: + + +

[11] = biological target: T9, mCherry-tagged human VPS34 complex II with VPS34 199-REIE-202>ERIR (human, UniProt Q8NEB9 1-887; Q99570 1-1358; Q14457 1-450; Q9P2Y5 1-699, R199E | E200R | E202R); experiment: as above; settings: both partners purified
T9 construct: VPS34 (PIK3C3), human, full length, untagged, R199E E200R E202R (199-REIE-202 to ERIR); VPS15, human, full length; BECLIN1, human, full length; UVRAG, human, full length, untagged; also called VPS34-CII REIE >ERIR; CII-ERIR; source: Expi293 cells, transfected, purified (IgG beads, TEV cleavage, gel filtration); not shown: ZZ, C-terminal, cleaved; mCherry, N-terminal, kept; copies: + + +

[12] = biological target: human VPS34-CII with VPS34 199-REIE-202>199-ERIR-202, untagged (human, UniProt Q8NEB9 1-887; Q99570 1-1358; Q14457 1-450; Q9P2Y5 1-699, R199E | E200R | E202R); experiment: cell-based or functional assay
[13] = biological target: T5, mCherry-tagged human VPS34-CII with …; experiment: cell-based or functional assay

- Kd [1]: 6 µM
- binding result [2]: binds
B1: S. cerevisiae Vps21 Q66L, 1-207, EGFP fusion (natural protein, UniProt P36017 1-207, looked up)
chain: MNTSVTSIKLVLLGEAAVGKSSIVLRFVSNDFAENKEPTIGAAFLTQRVTINEHTVKFEIWDTAGLERFASLAPMYYRNAQAALVVYDVTKPQSFIKARHWVKELHEQASKDIIIALVGNKIDMLQEGGERKVAREEGEKLAEEKGLLFFETSAKTGENVNDVFLGIGEKIPLKTAEEQNSASNERESNNQRVDLNAANDGTSANSA
notes: S. cerevisiae Vps21 residues 1-207, Q66L (GTP-locked); Backbone pOPTH; also called Vps21 Q66L-EGFP; yeast RAB5 orthologue; source: E. coli OverExpress C41(DE3), purified (Ni-NTA, Q column, S75 gel filtration), GTP-loaded; not shown: EGFP, C-terminal, kept

- Kd [3]: 2.6 µM
- Kd [4]: 27 µM
- Kd [5]: 7.4 µM
- fold tighter binding than the WT complex [6]: ~3 fold
- Kd [7]: 6 µM
B2: AF488-labelled human RAB5A Q79L C19S C63S, 1-212 (natural protein, UniProt P20339 1-212, looked up)
chain: MASRGATRPNGPNTGNKISQFKLVLLGESAVGKSSLVLRFVKGQFHEFQESTIGAAFLTQTVSLDDTTVKFEIWDTAGLERYHSLAPMYYRGAQAAIVVYDITNEESFARAKNWVKELQRQASPNIVIALSGNKADLANKRAVDFQEAQSYADDNSLLFMETSAKTSMNVNEIFMAIAKKLPKNEPQNPGANSARGRGVDLTEPTQPTRNQC
modifications: AlexaFluor 488 C5 maleimide label (43% labelling efficiency)
notes: human RAB5A residues 1-212, Q79L C19S C63S; The methods say that RAB5A was loaded with GTP or GDP; also called RAB5A-AF488; RAB5-AF488

- Kd [8]: 6.04 µM
- Kd [9]: 3.21 µM and 4.24 µM
- Kd [10]: 6.27 µM
- Kd [11]: 22.1 µM
B3: HsRAB5A Q79L C19S,C63S, 1-212, AF488-labelled (natural protein, human, UniProt P20339 1-212, looked up)
chain: B2 chain
modifications: AlexaFluor 488 C5 maleimide label (43% labelling efficiency)
notes: RAB5A, human, residues 1-212, with Q79L, C19S and C63S; Loaded with GTP or GDP before gel filtration; also called RAB5A-AF488; AF488-RAB5A; source: E. coli OverExpress C41(DE3), purified (HisTrap, ULP1 cleavage, gel filtration)

- GUV-based kinase assay: activation of VPS34-CII by membrane-tethered RAB5A (initial rates, AF647-PX signal) [12]: 2 fold
- GUV-based kinase assay: activation of VPS34-CII by membrane-tethered RAB5A (initial rates, AF647-PX signal) [13]: ~2 fold
B4: human RAB5A-GTP 1-212 (C19S, C63S, Q79L), unlabelled (natural protein, UniProt P20339 1-212, looked up)
chain: B2 chain
